In the nanobody polyreactivity screen of Harvey et al. (2022):

Experiment: yeast display, Sf9 membrane polyspecificity reagent, FACS + sequencing; frameworks hold sequencing errors
In short: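 A synthetic nanobody library was expressed on Saccharomyces cerevisiae BJ5465 by galactose induction for 36–48 hours. The library was stained for 1 hour at 4 °C with 10% biotinylated, detergent-solubilized Sf9 membrane reagent and enriched with streptavidin microbeads before FACS. Low and high (top ~1%) gates were set on anti-HA fluorescence for expression and streptavidin fluorescence for reagent binding, and each polyreactivity label reflects the gate of origin.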

Sequence	polyreactivity (PSR sort gate)
QVQHVESVGGLVQAGGSLRLSCAASASIIYANTMGWYRQAPGKEREFVATITDSGAIKYYADSVKGRFTISRDNAKNTVYLQMNSLKPEDTAVYYCNADSIYSARGWLYGYWGQGTQVTVSS	low polyreactivity
QVQHVQSGGGLVQAGGSLRLSCAASGSTFPGYAMGWYRQDPGKEREFVAAISTSGGRTYYADSVKGRFTISRDNAKNTVYVQMNSLKPEDTAVYFCNADRYSQYSHSRYDYWGQGTQVTVSS	high polyreactivity
QVQIEESGGGLVQAGGSHRLSCAASGRTFGGNAMGRYRQAPRKERELVAAISISGGSNTYYADSVKGRFTISRDTGKNTVYLQMNSLKPEDTAVYFCAARSTVYISSDYWGQGTQVTVSS	low polyreactivity
QVQIEESGGGLVQAGGSLRLICAASGIIIMDYDMGWSRQAPGKERELVAAISRSGGSTYYADSVKGRFKISRDNAKNSVYLQMNSLKPEDTAVYYCNADNVDYPSAPLNPGKGIYYWGQGTQVTVSS	low polyreactivity
QVQIEESGGGLVQAGGSLRLSCAASASIFYPNAMGWYRQAPVKEREFVAAITRNGDSTYYADSVKGRFTISRDNAKNTVYLQMNSLKPEDTAVYYCNTDGQGIYSYNKDLSWISGYDYWGQGTQVTVSS	low polyreactivity
QVQIEESGGGLVQAGGSLRLSCAASGITFYWYARGWYRQAPVTERELVAAITRSGSSTYYADSVKGRFTISRDNAKNTVYLQMYSLKPEDTAVDYCAALPYKPYYDAYDYWGQGTQVTVSS	high polyreactivity
QVQIEESGGGLVQAGGSLRLSCAASGRIFARNALGWYRQSPGTEREFVAAITHSGGNTYYADSVKGRFTISRDNAKNSVYLQMNSLKPEDTAVYYCAKDYRSTKYDYWGQGTQVTVSS	low polyreactivity
QVQIGESGGGLVQAGGSLRLSCAASGSIIVGYAMGWYRQAPGKEREVVAAISKRGTSTYYADSVKGRFTISRDNAKNTVYLQMNSLKPEETAVYDCNALDLVNHGWTERLDQDYYYWGQGTQVTVSS	high polyreactivity
QVQIGESGGGLVQAGGSRRLSCAASGLTFYLYAMGWYRQAPGKERELVAAITTSGGSTYYADSVKGRFTISRDNAKNTVYLQMNSLKPEDTAVYDCATQGAIRGYGYWGQGTQVTVSS	high polyreactivity
QVQIGQSGGGLVQAGGSLRLSCAASGRIIWSNAMGWNRQAPGKERELVAAIRNTGSTNYADSVKGRFTISRDNAKNTVYLQMNSLKPEDTEVYYCAADRATYCTYAYGYWGQGTQVTVSS	high polyreactivity
QVQILESGGGLVQAGGSLRLSCAASGRIFGGYAMGWYRQAPGKERELVAAIRWRGGRTYYADSVKGRFTISRDNAKNTVYLQMNSLKPEDTAVYYCAADYSFTGHRYTYGYWGQGTQVTVSS	high polyreactivity
QVQILESGVGLVQPGGSLRLICAASGITLQFYALGWYRKATGKEAELVAAISISGGRTYYADSVKGRFTISRDNAKNTFYLQMNSLKPEDTAVYYCAAYLQRAYRYGYWGQGTQVTVSS	high polyreactivity
QVQILETGGGLVQAGGSLSLSCAASGSIFYSNAMGWYRQAPGKESEIVAAISAGGGSTYYADSVKGRFTISRDNAINTVYLQMNSLKPEDTAVYYCAAQPYKIIYPYDYWGQGTQVTVSS	low polyreactivity
QVQIVDSGGGLVQAGGSLRLSCAASGRTFNYYAKGWYRQAPGKERQLVAAISKSGGSTYYADSVKGRFTISRDNEKNTVYLQMNSLKPEETAVYYCAALTTHAPHSYNYWGQGTQVTVSS	low polyreactivity
QVQIVESGAGLVQAGGSLRLSCAPSGRIFVTNAMGWYRQSPGKERELGAAITSGGSTYYADSVKGRFTISRDNAKNNVYLQMNSLKPEDTAVFYCARPVFSQRYVTTRYDYWGQGTQVTVSS	low polyreactivity
QVQIVESGARLVQAGGSLRLSCAASGRTFYAYAMGWYTQAPGKDREYFASIRLRGGSTYYADSVKGRFTISRDNAKNTVYLQMHSLKPEDTAVYYGNAFYGGSSSYWYYSWGQGTQVTVSS	high polyreactivity

Sequence	polyreactivity (PSR sort gate)
QVQIVESGGGIVQAGGSLRLSCAASGFIFVFNAMGWNRKAPGKERELVAAINGGDNTNYADSVKGRFTISRDNAKNTVYLQINSLKPEDTAVYYCAAEGEDSMWTGYDYDYWGQGTQVTVSS	low polyreactivity
QVQIVESGGGIVQAGGSLRLSCAASGRTLQTYVMGWYRQSPGKEREWVAAITRGGGSTYYADSVKGRFTISRDNAKNTVYLQMNSLKPEDTAVYYCAASALRFNSSFSHWYNYWGQGTQVTVSS	high polyreactivity
QVQIVESGGGIVQAGVSLRLICAASGFTFIDNTMGWYRQAPGKERELVAAISSDGRTNYADSVKGRFTISRDNAKNNVYLQKNSLKPEYTAVYYCASEDYYWYVTGDLYHTAVYYWGQGTQVTVSS	low polyreactivity
QVQIVESGGGLFQAGGSLRLSCAASGRIFDPYSMGWYRQAPGKERELVASISWSGGRTYYADSVKGRFTISRDNAKNTVYLQMNSLKPEDTAVYYCARRFYKGTSKTNLFDFWGQVTQVTVSS	high polyreactivity
QVQIVESGGGLLQAGGSLRLSCAASGRIFRRNAMGWYRQATGKERELVAAISKSGGSTYYADSVKGRFTISRDNAKNTVYLQMNSLKPEDTAVYYCAAEYSDRYDYWGQGTQVTVSS	high polyreactivity
QVQIVESGGGLVDAGGSLRLSCAASGRTFPPYAMGWYRQAPGKERELVAAISGSGASTYYADSVKGRFTISRDNAKNTVKLQWISQKPEDTAVYSWARYRGYWGRYYGVHYGYWGQGTQVTVSS	high polyreactivity
QVQIVESGGGLVQAAGSLRLSCPASGRIFSDYAMGWYRQAPGKERELVAVITRGGDNTHYADSVKGRFTISRDNAKNTVYFQMNSLKPEDTAVYYCAAGFVYFRLRRYFWRDYWGQGTQVTVSS	low polyreactivity
QVQIVESGGGLVQAGASLRLSCAASGLIFPQKVMGWYIQAPGNERVLVAAISSGTITNYADSVKGRFTISRDNAKNSVYLQMNSLKPEDTADYFCAAEEDKKTFDYWGQGTQVTVSS	low polyreactivity
QVQIVESGGGLVQAGATLRLSCDASGITIEGYAMGWYRQAPGKERELVAAIRSSGTSTYYADSVKGRFTITRDFAKNTVYLQMNSLKPEDTAVYYCNRARSSSRYDYWGQGTQVTVSS	low polyreactivity
QVQIVESGGGLVQAGCSLRISCAASGRTFYRYAMGWYRQAPGKEREFVAAISWRGGSTRYADSVKGRFTISRDNAKNTVYLQLNSLKPEVTAVYYCNADPQRSVSYTDQYRPVWYGYWGQGTQVTVSS	high polyreactivity
QVQIVESGGGLVQAGGILRLSCAASGNTFGYYAMGWYRQAPGKEWELVAAISRGGGSTYYADSVKGRFTISRDNAKNTVYLQMNRLKPEDTAVYYCARRYRLSTSWSYRVGYWGQGTQVTVSS	high polyreactivity
QVQIVESGGGLVQAGGSLRFSCADSGFTFYSYAIVWYRQAPGKERELVAAISWSGGSTYYADSVKGRFTISRDNAKNTVYLQMNSLKPEDTAVYFCNAPYIGEHYYWGQGTQVTVSS	high polyreactivity
QVQIVESGGGLVQAGGSLRISCAASGLIYSSYGMGWYRQAPGKERELVAAISSGGSTYYADSVKGRFSISRDNAKNTVYLQKKSLKPEDTAVYYCADGVLYPYWYSTYYPDCQYYYWGHGTQVTVSS	low polyreactivity
QVQIVESGGGLVQAGGSLRISCAASGRTFSWNPMGWYRQAPGKERELVAGITGRGRSTYYADSVKGRFTISRDNAKLTVYLQMNSLTPEDTAVYYCAADSYRSSSPYGYWGQGTQVTVSS	high polyreactivity
QVQIVESGGGLVQAGGSLRISCSASGRTLRSYAMGWYRHAPGKERELVAAISRSGGSTNYADSVKGRFTISHDNAKNTVYLQMNSLKPEETAVYYCNTYSTSWKMDYWGQGTKVTVSS	high polyreactivity
